From paper PMC3121171 (Forum on immunopathological diseases and therapeutics, 2011)

Biological target: T1, Purified recombinant human GRK2 (G protein-coupled receptor kinase 2) (human, UniProt P25098 1-689)
T1 sequence (looked up): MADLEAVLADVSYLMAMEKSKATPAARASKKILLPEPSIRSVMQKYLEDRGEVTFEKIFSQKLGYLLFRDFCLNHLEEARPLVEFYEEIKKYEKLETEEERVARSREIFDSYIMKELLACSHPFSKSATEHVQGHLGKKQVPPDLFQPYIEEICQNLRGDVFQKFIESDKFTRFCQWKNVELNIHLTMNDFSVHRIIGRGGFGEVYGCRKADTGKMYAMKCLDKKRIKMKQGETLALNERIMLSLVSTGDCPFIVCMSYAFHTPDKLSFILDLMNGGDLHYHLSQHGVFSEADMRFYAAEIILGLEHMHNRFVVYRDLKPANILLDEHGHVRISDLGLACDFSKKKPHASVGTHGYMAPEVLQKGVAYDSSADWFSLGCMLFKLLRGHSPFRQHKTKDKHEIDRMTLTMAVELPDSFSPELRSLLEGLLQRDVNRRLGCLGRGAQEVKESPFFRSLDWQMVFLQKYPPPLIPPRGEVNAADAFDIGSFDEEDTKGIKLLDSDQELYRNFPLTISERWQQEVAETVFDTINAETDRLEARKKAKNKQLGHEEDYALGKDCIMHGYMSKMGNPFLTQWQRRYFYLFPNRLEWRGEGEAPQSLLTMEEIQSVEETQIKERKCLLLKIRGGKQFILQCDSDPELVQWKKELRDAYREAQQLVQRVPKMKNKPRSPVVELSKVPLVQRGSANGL
Assay: pull-down

B1: His-tagged human RKIP-1/PEBP-1 (Raf kinase inhibitor protein) (natural protein)
chain: MPVDLSKWSGPLSLQEVDEQPQHPLHVTYAGAAVDELGKVLTPTQVKNRPTSISWDGLDSGKLYTLVLTDPDAPSRKDPKYREWHHFLVVNMKGNDISSGTVLSDYVGSGPPKGTGLHRYVWLVYEQDRPLKCDEPILSNRSGDHRGKFKVASFRKKYELRAPVAGTCYQAEWDDYVPKLYEQLSGK
  binding result: binds
